Where two headings read alike, the source gives them in different places.
Experiments:
[1] = biological target: T1, human pregnancy-associated plasma protein-A (PAPP-A) (human, UniProt Q13219 82-1627); test: cell-based or functional assay
human PAPP-A(E483Q) [2] = biological target: T2, human PAPP-A(E483Q) (human, UniProt Q13219 82-1627); test: SPR (BIAcore T100), PAPP-A immobilized on CM5 chip, PAC1 0.35-11 nM injected at 37 C, 1:1 model, global fit; SPR, 37 C, PAPP-A on the chip
T2 construct: Active-site mutant; also called immobilized PAPP-A (SPR)
T2 sequence (Q13219 other isoform, or with tags, fused parts or gaps E483Q E483Q limits assumed): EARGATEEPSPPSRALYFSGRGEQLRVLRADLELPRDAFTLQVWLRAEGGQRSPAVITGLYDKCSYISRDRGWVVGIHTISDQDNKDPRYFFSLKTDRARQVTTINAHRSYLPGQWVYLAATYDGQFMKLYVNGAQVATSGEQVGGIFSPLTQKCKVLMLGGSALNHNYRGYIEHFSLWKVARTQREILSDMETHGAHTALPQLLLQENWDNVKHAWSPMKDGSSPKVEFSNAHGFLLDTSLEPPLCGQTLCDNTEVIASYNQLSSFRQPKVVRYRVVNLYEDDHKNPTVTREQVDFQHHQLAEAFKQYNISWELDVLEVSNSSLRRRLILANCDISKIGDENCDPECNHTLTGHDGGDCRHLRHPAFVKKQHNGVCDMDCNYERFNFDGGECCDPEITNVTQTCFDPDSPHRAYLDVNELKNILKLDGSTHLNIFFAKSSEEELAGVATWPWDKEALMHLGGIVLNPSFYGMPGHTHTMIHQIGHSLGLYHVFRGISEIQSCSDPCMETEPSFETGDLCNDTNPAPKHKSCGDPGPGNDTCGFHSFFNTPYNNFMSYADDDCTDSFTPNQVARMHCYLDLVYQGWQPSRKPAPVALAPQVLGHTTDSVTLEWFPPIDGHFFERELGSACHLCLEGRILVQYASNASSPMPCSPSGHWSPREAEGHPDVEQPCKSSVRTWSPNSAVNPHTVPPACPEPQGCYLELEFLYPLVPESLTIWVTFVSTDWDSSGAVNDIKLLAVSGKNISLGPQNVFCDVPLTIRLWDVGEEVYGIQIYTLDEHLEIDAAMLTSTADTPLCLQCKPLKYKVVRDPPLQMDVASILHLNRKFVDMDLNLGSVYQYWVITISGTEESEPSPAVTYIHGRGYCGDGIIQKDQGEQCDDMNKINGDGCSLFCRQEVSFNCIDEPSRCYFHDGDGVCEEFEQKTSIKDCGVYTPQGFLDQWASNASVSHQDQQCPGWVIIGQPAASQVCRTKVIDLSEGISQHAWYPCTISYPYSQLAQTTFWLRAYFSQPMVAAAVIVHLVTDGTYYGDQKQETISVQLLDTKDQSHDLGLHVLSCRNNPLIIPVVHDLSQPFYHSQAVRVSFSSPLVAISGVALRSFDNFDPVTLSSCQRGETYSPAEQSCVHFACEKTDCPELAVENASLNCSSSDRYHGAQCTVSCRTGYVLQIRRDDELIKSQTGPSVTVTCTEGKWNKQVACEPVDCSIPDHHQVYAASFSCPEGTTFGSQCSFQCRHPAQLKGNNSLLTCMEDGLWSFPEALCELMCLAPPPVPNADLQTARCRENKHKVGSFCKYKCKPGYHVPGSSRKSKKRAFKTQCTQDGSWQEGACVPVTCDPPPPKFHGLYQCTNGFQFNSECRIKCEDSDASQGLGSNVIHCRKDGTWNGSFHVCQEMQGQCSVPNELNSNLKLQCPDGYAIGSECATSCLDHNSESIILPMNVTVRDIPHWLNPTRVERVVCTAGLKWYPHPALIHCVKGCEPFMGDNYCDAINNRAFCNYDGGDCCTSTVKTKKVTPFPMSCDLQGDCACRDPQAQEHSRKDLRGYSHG
Procedure: (§1) A) Cleavage of IGFBP-4 (10 nM) by human PAPP-A (0.1 nM) in the presence of PAC1 (1.5 μM). The cleavage reaction was incubated (37° C.), and samples were taken out at intervals from 0 to 60 min, as indicated above each lane. The cleavage was visualized by SDS-PAGE followed by autoradiography. At 60 min, a faint band is visible at the position of the cleavage products (c). B) Cleavage of IGFBP-4 (10 nM) by murine PAPP-A (0.1 nM) for 1 h at 37° C. in the presence of 0-750 nM PAC1, as indicated above each lane. C) Cleavage of IGFBP-4 (10 nM) by PAPP-A (0.1 nM) was analyzed at different concentrations of PAC1. Relative initial velocities, determined independently, are plotted as a function of PAC1 concentration. All concentrations were determined by amino acid analysis (IGFBP-4 and PAC1) or ELISA (PAPP-A). Assuming competitive inhibition, an inhibitory constant was calculated (Kᵢ=1.2 nM±0.1). D) Sensorgrams showing binding of PAC1 to immobilized human PAPP-A. Purified PAC1 (0.35, 0.7, 1.4, 2.8, 5.5, and 11 nM) was injected onto the chip at 37° C. for 120 s followed by dissociation for 300 s.
(§2) Surface plasmon resonance analysis—Surface plasmon resonance experiments were carried out on a BIAcore T100 instrument (BIAcore AB, Uppsala, Sweden) using series S CM5 sensor chips and coupling reagents supplied by the manufacturer. Affinity purified PAPP-A(E483Q), 10 μg/mL in 10 mM sodium acetate, pH 5.0, was immobilized (at a level of 500 resonance units (RU)) to the activated chip at 25° C. Remaining activated groups were blocked by 1M ethanolamine. Purified antibodies (0.35-11 nM) diluted in 10 mM HEPES, 150 mM NaCl, 1 mM CaCl₂, 0.05% Tween-20, pH 7.4 (HBS), were injected over the sensor chip for 2 min at a flow rate of 30 μL/min at 37° C. Recorded signals were subtracted the background signal, determined by the injection of an irrelevant antibody. […] Data were analyzed using the software of the manufacturer (BIAcore T100 evaluation Software version 1.1).

[3] = biological target: T1, human pregnancy-associated plasma …; test: inhibition of IGFBP-4 (10 nM) cleavage by human PAPP-A (0.1 nM), relative initial velocities against PAC1 concentration, competitive inhibition assumed; IGFBP-4 cleavage assay, competitive inhibition assumed
Procedure: as §1, with “D) Sensorgrams showing binding of PAC1 to immobilized human PAPP-A. Purified PAC1 (0.35, 0.7, 1.4, 2.8, 5.5, and 11 nM) was injected onto the chip at 37° C. for 120 s followed by dissociation for 300 s.” left out
Measurement of proteolytic activity—Proteolytic activity of PAPP-A against IGFBP-4 and -5 was analyzed as previously described in detail (45). In brief, purified substrates, quantified by amino acid analysis, were labelled with ¹²⁵I (Amersham Biosciences). […] The degree of cleavage was determined by quantification of band intensities using a Typhoon imaging system (GE Healthcare), and background levels (mock signals) were subtracted. […]

[4] = biological target: T1, human pregnancy-associated plasma …; test: cell-based or functional assay; remark: listed apart in the source
human PAPP-A(D1499A) = human PAPP-A(D1499A) (human, UniProt Q13219 82-1627); test: binding to alanine mutants of human PAPP-A (ELISA per paragraph 531)
Sequence of human PAPP-A(D1499A) (Q13219 other isoform, or with tags, fused parts or gaps D1499A D1499A limits assumed): as the sequence (Q13219 other isoform, or with tags, fused parts or gaps E483Q E483Q limits assumed) above, with Q483E, D1499A counted along it
Procedure: (§3) A, PAC1 binding to human PAPP-A/PAPP-A2 chimeras or truncated human PAPP-A variants analyzed by ELISA. Sequence derived from PAPP-A is shown by open bars, and absence of binding (−) or binding (+) is indicated. […] Samples with or without EDTA (10 mM) were injected (120 s) followed by dissociation (180 s) (solid lines). […] The absence of binding (−) or binding (+) is indicated. PAC5, which was used as a positive control, binds to an epitope of PAPP-A located N-terminal to CCP1.
(§4) Determination of antibody specificity and mapping of antibody binding—Mapping of antibody binding was carried out by ELISA using PAPP-A/PAPP-A2 chimeric proteins, and mutated variants of PAPP-A. The proteins were immobilized with polyclonal PAPP-A antibodies, and binding of phage antibodies were analyzed as detailed above.

[5] = biological target: human PAPP-A R1529A mutant (human, UniProt Q13219 82-1627); test: as above
Sequence of human PAPP-A R1529A mutant (Q13219 other isoform, or with tags, fused parts or gaps R1529A R1529A limits assumed): as the sequence (Q13219 other isoform, or with tags, fused parts or gaps E483Q E483Q limits assumed) above, with Q483E, R1529A counted along it
Procedure: as §3, §4

[6] = biological target: human PAPP-A D1530A mutant (human, UniProt Q13219 82-1627); test: as above
Sequence of human PAPP-A D1530A mutant (Q13219 other isoform, or with tags, fused parts or gaps D1530A D1530A limits assumed): as the sequence (Q13219 other isoform, or with tags, fused parts or gaps E483Q E483Q limits assumed) above, with Q483E, D1530A counted along it
Procedure: as §3, §4

human PAPP-A(D1484A) = human PAPP-A(D1484A) (human, UniProt Q13219 82-1627); test: as above
Sequence of human PAPP-A(D1484A) (Q13219 other isoform, or with tags, fused parts or gaps D1484A D1484A limits assumed): as the sequence (Q13219 other isoform, or with tags, fused parts or gaps E483Q E483Q limits assumed) above, with Q483E, D1484A counted along it
Procedure: as §3, §4

human PAPP-A(D1502A) = human PAPP-A(D1502A) (human, UniProt Q13219 82-1627); test: as above
Sequence of human PAPP-A(D1502A) (Q13219 other isoform, or with tags, fused parts or gaps D1502A D1502A limits assumed): as the sequence (Q13219 other isoform, or with tags, fused parts or gaps E483Q E483Q limits assumed) above, with Q483E, D1502A counted along it
Procedure: as §3, §4

human PAPP-A(E483Q) [7] = biological target: T2, human PAPP-A(E483Q); test: SPR, calcium ion dependence of binding to immobilized PAPP-A
Procedure: as §2
However, the binding was only disturbed when PAC1 was injected with EDTA onto a chip equilibrated with the calcium ion containing buffer (FIG. 8B). Following EDTA treatment, equilibration of the flow cell using calcium ion containing buffer restored its ability to bind PAC1 (FIG. 8B). […] Similar results were obtained with PAC2 (not shown).

[8] = biological target: human PAPP-A K1509A mutant (human, UniProt Q13219 82-1627); test: binding to alanine mutants of human PAPP-A (ELISA per paragraph 531)
Sequence of human PAPP-A K1509A mutant (Q13219 other isoform, or with tags, fused parts or gaps K1509A K1509A limits assumed): as the sequence (Q13219 other isoform, or with tags, fused parts or gaps E483Q E483Q limits assumed) above, with Q483E, K1509A counted along it
Procedure: as §3, §4

[9] = biological target: human PAPP-A E1535A mutant (human, UniProt Q13219 82-1627); test: as above
Sequence of human PAPP-A E1535A mutant (Q13219 other isoform, or with tags, fused parts or gaps E1535A E1535A limits assumed): as the sequence (Q13219 other isoform, or with tags, fused parts or gaps E483Q E483Q limits assumed) above, with Q483E, E1535A counted along it
Procedure: as §3, §4

[10] = biological target: human PAPP-A D1525A mutant (human, UniProt Q13219 82-1627); test: as above
Sequence of human PAPP-A D1525A mutant (Q13219 other isoform, or with tags, fused parts or gaps D1525A D1525A limits assumed): as the sequence (Q13219 other isoform, or with tags, fused parts or gaps E483Q E483Q limits assumed) above, with Q483E, D1525A counted along it
Procedure: as §3, §4

T1 sequence (Q13219 other isoform, or with tags, fused parts or gaps limits assumed): as the sequence (Q13219 other isoform, or with tags, fused parts or gaps E483Q E483Q limits assumed) above, with Q483E counted along it

| Binder | IC50 (read off the curve) [1] [nM] | Kd (human PAPP-A(E483Q) [2]) [nM] | koff (human PAPP-A(E483Q) [2]) [s⁻¹] | kon (human PAPP-A(E483Q) [2]) [M⁻¹ s⁻¹] | Ki [3] [nM] | IC50 (read off the curve) [4] [nM] | binding result (human PAPP-A(D1499A)) | binding result [5] | binding result [6] | binding result (human PAPP-A(D1484A)) | binding result (human PAPP-A(D1502A)) | binding result (human PAPP-A(E483Q) [7]) | binding result [8] | binding result [9] | binding result [10] |
| --- | --- | --- | --- | --- | --- | --- | --- | --- | --- | --- | --- | --- | --- | --- | --- |
| PAC1 (PAPP-A exosite antibody, scFv) (scFv, Selected from the Tomlinson I+J phage libraries and produced in E. coli HB2151; Purified scFv was used in SPR and cleavage assays; also called scFv PAC1; antibody PAC1) scFv: EVQLLESGGGLVQPGGSLRLSCAASGFTFSSYAMSWVRQAPGKGLEWVSVITDMGRTTRYADSVKGRFTISRDNSKNTLYLQMNSLRAEDTAVYYCAKGLRQFDYWGQGTLVTVSSGGGGSGGGGSGGGGSTDIQMTQSPSSLSASVGDRVTITCRASQSISSYLNWYQQKPGKAPKLLIYHASQLQSGVPSRFSGSGSGTDFTLTISSLQPEDFATYYCQQYGGNPTTFGQGTKVEIKRAAAHHHHHHGAAEQKLISEEDLNGAA | ~1 | 0.25 | 0.00109 | 4.36e+06 | 1.2 | ~2 | no binding | no binding | no binding | no binding | no binding | – | – | – | – |
| PAC2 (PAPP-A exosite antibody, scFv) (scFv, Selected from the Tomlinson I+J phage libraries; also called scFv PAC2) scFv: EVQLLESGGGLVQPGGSLRLSCAASGFTFSSYAMSWVRQAPGKGLEWVSSIQADGTRTGYADSVKGRFTISRDNSKNTLYLQMNSLRAEDTAVYYCAKQRGIFDYWGQGTLVTVSSGGGGSGGGGSGGGGSTDIQMTQSPSSLSASVGDRVTITCRASQSISSYLNWYQQKPGKAPKLLIYRASGLQSGVPSRFSGSGSGTDFTLTISSLQPEDFATYYCQQSHHYPSTFGQGTKVEIKRAAAHHHHHHGAAEQKLISEEDLNGAA | – | – | – | – | – | – | no binding | no binding | no binding | no binding | no binding | binds | binds | binds | binds |

Source: patent publication US20100310646A1 (AARHUS UNIVERSITET, published 2010)
